From patent US20220389394A1
Like-named read-outs stand apart in the source and are kept apart here.

Assays:
[1] = target: recombinant human FcRn (human) (UniProt P55899); test: ELISA; recombinant human FcRn coated, serially diluted test article, anti-human (H+L)-HRP, 4PL fit
[2] = target: biotinylated recombinant human FcγRI protein (Sino Biological) (human) (UniProt P12314); test: AlphaScreen competition; biotinylated FcγRI, competitor human IgG acceptor beads, 4PL fit
[3] = target: recombinant human C1q protein (Fitzgerald) (human) (UniProt P02745); test: ELISA; serially diluted test article immobilized, recombinant human C1q added, anti-C1q-HRP, 4PL fit
[4] = target: biotinylated recombinant human FcγRI protein (Sino Biological) (human) (UniProt P12314); test: AlphaScreen competition; biotinylated FcγRI, competitor human IgG acceptor beads, 4PL fit; remark: listed apart in the source
[5] = target: biotinylated recombinant human FcγRIIIa (Val 176 variant) protein (Sino Biological) (human) (UniProt P08637); test: AlphaScreen competition; biotinylated FcγRIIIa (Val 176 variant), competitor human IgG acceptor beads, 4PL fit
[6] = target: biotinylated recombinant human FcγRIIIa (Val 176 variant) protein (Sino Biological) (human) (UniProt P08637); test: as above; remark: listed apart in the source
[7] = target: recombinant human C1q protein (Fitzgerald) (human) (UniProt P02745); test: ELISA; serially diluted test article immobilized, recombinant human C1q added, anti-C1q-HRP, 4PL fit; remark: listed apart in the source
[8] = target: human FLT3 on the AML5 cell line (human) (UniProt P36888); test: cell-based or functional assay
[9] = target: mouse FLT3 on the M1 cell line (mouse) (UniProt Q00342); test: cell-based or functional assay
mouse FLT3 on the M1 cell line (mouse), sequence (Q00342 28-1000): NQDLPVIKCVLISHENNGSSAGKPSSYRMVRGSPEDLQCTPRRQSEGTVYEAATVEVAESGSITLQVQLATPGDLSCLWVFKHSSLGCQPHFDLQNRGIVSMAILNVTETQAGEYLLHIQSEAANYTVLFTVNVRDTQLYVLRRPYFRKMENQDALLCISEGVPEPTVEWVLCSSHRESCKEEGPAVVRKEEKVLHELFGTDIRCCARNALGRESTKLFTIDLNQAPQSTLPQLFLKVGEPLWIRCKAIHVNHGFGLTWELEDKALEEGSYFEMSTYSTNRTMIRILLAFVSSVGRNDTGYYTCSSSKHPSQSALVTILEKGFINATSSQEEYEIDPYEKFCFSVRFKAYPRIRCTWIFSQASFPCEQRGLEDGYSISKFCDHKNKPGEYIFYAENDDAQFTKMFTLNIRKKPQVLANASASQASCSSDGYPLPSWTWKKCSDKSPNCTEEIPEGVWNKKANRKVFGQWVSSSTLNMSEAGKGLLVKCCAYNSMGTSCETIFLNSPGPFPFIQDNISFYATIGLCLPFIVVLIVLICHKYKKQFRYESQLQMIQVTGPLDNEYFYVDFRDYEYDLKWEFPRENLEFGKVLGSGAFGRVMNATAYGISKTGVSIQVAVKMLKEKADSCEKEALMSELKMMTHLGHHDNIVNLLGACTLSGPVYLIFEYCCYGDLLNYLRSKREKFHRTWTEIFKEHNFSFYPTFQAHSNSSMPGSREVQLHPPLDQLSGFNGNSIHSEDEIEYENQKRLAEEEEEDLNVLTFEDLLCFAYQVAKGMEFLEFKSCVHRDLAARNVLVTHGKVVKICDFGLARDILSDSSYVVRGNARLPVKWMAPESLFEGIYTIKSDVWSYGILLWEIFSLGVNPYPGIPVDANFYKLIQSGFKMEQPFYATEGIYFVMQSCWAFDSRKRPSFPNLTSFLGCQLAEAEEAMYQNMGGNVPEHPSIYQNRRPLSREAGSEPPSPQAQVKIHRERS

biotinylated recombinant human FcγRI protein (Sino Biological) (human), sequence (P12314 16-288 limits assumed): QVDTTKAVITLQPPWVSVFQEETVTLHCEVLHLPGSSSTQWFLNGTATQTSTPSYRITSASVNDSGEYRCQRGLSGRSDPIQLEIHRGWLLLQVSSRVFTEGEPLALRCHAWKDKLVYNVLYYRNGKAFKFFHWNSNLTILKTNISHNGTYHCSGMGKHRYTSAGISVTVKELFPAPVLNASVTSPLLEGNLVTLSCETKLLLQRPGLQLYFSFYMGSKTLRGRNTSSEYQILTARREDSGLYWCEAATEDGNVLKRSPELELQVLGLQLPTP
biotinylated recombinant human FcγRIIIa (Val 176 variant) protein (Sino Biological) (human), sequence (P08637 other isoform, or with tags, fused parts or gaps mutant limits assumed): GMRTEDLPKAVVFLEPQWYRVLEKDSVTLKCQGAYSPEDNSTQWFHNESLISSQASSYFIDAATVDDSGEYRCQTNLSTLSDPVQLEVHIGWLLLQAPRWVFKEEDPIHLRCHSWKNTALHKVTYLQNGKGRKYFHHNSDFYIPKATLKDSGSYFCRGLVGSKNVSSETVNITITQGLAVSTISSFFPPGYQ
recombinant human FcRn (human), sequence (P55899 24-297 limits assumed, chain 1 of 2): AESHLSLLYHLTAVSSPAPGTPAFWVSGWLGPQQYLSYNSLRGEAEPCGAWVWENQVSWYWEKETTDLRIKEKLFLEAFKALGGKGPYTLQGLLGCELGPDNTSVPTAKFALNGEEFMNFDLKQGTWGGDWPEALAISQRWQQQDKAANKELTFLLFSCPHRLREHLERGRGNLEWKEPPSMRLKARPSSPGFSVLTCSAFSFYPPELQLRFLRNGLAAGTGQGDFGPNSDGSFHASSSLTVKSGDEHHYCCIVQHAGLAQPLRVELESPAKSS
recombinant human FcRn (human), sequence (chain, as listed by the source limits assumed, chain 2 of 2): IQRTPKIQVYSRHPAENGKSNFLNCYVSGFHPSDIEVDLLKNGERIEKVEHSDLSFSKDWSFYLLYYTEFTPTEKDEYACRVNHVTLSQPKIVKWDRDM
recombinant human C1q protein (Fitzgerald) (human), sequence (P02745 23-245 limits assumed, chain 1 of 3): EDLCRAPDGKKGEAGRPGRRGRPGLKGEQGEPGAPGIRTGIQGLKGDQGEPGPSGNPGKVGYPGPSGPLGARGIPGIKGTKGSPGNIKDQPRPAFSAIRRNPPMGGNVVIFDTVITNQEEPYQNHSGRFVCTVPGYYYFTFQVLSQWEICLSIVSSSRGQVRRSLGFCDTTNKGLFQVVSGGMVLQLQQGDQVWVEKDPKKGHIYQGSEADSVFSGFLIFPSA
recombinant human C1q protein (Fitzgerald) (human), sequence (P02746 28-253 limits assumed, chain 2 of 3, further chain): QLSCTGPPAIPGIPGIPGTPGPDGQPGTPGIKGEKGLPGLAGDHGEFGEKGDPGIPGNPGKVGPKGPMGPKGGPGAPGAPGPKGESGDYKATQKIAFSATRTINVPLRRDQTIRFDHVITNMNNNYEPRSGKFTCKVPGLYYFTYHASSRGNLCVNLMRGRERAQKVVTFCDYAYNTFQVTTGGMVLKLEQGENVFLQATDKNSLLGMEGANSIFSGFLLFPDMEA
recombinant human C1q protein (Fitzgerald) (human), sequence (P02747 29-245 limits assumed, chain 3 of 3, further chain): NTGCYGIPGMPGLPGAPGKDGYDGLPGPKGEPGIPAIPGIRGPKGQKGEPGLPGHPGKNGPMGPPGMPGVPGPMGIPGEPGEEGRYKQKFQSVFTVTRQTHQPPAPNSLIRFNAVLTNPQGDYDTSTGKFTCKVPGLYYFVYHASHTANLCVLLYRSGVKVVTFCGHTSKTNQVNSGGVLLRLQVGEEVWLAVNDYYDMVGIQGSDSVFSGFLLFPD
human FLT3 on the AML5 cell line (human), sequence (P36888 27-993): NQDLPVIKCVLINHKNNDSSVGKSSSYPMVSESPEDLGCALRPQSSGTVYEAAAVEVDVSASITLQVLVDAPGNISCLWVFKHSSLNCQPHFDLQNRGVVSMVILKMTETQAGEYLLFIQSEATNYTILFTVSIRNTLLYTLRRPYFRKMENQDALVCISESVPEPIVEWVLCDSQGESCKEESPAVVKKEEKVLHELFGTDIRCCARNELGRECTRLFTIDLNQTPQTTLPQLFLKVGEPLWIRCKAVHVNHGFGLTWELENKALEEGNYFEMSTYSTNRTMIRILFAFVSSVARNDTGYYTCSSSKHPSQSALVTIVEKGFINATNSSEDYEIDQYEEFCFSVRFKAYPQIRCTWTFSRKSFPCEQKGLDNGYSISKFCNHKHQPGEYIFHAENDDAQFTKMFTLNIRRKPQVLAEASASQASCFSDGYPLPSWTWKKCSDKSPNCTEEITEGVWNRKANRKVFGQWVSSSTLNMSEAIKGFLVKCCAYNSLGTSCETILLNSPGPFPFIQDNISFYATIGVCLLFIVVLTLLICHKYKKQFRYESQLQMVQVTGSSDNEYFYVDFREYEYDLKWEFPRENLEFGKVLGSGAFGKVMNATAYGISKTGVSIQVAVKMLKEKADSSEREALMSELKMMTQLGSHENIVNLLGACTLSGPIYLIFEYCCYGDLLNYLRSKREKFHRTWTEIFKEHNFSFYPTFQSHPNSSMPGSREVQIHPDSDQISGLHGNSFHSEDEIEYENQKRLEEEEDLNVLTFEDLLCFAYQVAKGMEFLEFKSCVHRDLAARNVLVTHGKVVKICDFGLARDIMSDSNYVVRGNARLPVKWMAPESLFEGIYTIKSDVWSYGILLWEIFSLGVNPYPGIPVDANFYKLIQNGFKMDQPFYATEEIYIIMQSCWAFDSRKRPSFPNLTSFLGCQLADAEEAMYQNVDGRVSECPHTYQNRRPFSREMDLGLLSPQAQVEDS

human IgG4 isotype antibody
EC50 [1]: 25.9 nM
EC50 [2]: 13.6 nM
EC50 [3]: 13.7 nM
EC50 [4]: 14.5 nM
EC50 [5]: 368 nM
EC50 [6]: 326 nM
EC50 [7]: 16.7 nM

recombinant human FLT3-ligand (from UniProt P49771 27-185)
EC50 (nM), AML5 proliferation [8]: 0.039 nM
EC50 (nM), M1 IL-6 release assay [9]: 0.024 nM
Emax (pg/ml), M1 IL-6 release assay [9]: 392 pg/mL

human IgG1 isotype antibody
EC50 [1]: 4.46 nM
EC50 [2]: 4.44 nM
EC50 [4]: 5.25 nM
EC50 [5]: 38.8 nM
EC50 [6]: 32.1 nM

recombinant human FLT3-ligand human IgG1 fusion protein (Fc fusion)
EC50 (nM), M1 IL-6 release assay [9]: 0.117 nM
Emax (pg/ml), M1 IL-6 release assay [9]: 517 pg/mL
